From US20220016243A1 (published 2022) come the findings set out here.

This experiment deals with T1, TIGIT (T-cell immunoreceptor with Ig and ITIM domains), peripheral TIGIT receptors on patients' CD4+ T cells, … (human (patients), UniProt Q495A1 22-244).
T1 construct: whole, on cells; Endogenous receptor on patients' peripheral immune cells; Occupancy was measured ex vivo after dosing with tiragolumab
T1 sequence (looked up): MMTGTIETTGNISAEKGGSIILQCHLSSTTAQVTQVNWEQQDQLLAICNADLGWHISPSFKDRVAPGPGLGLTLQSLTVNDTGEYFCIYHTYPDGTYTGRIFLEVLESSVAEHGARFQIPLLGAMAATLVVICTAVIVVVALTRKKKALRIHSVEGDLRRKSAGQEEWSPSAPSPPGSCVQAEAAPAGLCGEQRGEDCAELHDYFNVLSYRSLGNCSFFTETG
In words: receptor occupancy on peripheral CD8+ T cells and NK cells of patients dosed at 2-1200 mg Q3W (Phase Ia, Study GO30103).

B1: tiragolumab (antibody, human IgG1, kappa, V domains shown)
VH: EVQLQQSGPGLVKPSQTLSLTCAISGDSVSSNSAAWNWIRQSPSRGLEWLGKTYYRFKWYSDYAVSVKGRITINPDTSKNQFSLQLNSVTPEDTAVFYCTRESTTYDLLAGPFDYWGQGTLVTVSS
VL: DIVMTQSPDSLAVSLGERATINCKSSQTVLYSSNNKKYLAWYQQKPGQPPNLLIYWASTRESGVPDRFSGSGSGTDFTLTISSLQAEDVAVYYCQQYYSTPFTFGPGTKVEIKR
notes: also called MTIG7192A; RG6058
Regarding B1, the binding result is on record as “binds”.
